From article PMC3580015 (Archives of biochemistry and biophysics, 2013)
“And” between values parts separate entries of the source, which are not always exact repeats. Identical values can stand only once.

B1: full length human phenylalanine hydroxylase (PAH) (enzyme, UniProt P00439 1-452, looked up)
chain: MSTAVLENPGLGRKLSDFGQETSYIEDNCNQNGAISLIFSLKEEVGALAKVLRLFEENDVNLTHIESRPSRLKKDEYEFFTHLDKRSLPALTNIIKILRHDIGATVHELSRDKKKDTVPWFPRTIQELDRFANQILSYGAELDADHPGFKDPVYRARRKQFADIAYNYRHGQPIPRVEYMEEEKKTWGTVFKTLKSLYKTHACYEYNHIFPLLEKYCGFHEDNIPQLEDVSQFLQTCTGFRLRPVAGLLSSRDFLGGLAFRVFHCTQYIRHGSKPMYTPEPDICHELLGHVPLFSDRSFAQFSQEIGLASLGAPDEYIEKLATIYWFTVEFGLCKQGDSIKAYGAGLLSSFGELQYCLSEKPKLLPLELEKTAIQNYTVTEFQPLYYVAESFNDAKEKVRNFAATIPRPFSVRYDPYTQRIEVLDNTQQLKILADSINSEIGILCSALQKIK
B2: full length rat phenylalanine hydroxylase (PAH) (enzyme, UniProt P04176 1-453, looked up)
chain: MAAVVLENGVLSRKLSDFGQETSYIEDNSNQNGAISLIFSLKEEVGALAKVLRLFEENDINLTHIESRPSRLNKDEYEFFTYLDKRTKPVLGSIIKSLRNDIGATVHELSRDKEKNTVPWFPRTIQELDRFANQILSYGAELDADHPGFKDPVYRARRKQFADIAYNYRHGQPIPRVEYTEEEKQTWGTVFRTLKALYKTHACYEHNHIFPLLEKYCGFREDNIPQLEDVSQFLQTCTGFRLRPVAGLLSSRDFLGGLAFRVFHCTQYIRHGSKPMYTPEPDICHELLGHVPLFSDRSFAQFSQEIGLASLGAPDEYIEKLATIYWFTVEFGLCKEGDSIKAYGAGLLSSFGELQYCLSDKPKLLPLELEKTACQEYSVTEFQPLYYVAESFSDAKEKVRTFAATIPRPFSVRYDPYTQRVEVLDNTQQLKILADSINSEVGILCNALQKIKS

Target: the molecule itself
Assay: native gel or EMSA

| Protein | stoichiometry N |
| --- | --- |
| B1 | 4 and 2 |
| B2 | 4 and 2 |
